Laboratory results as given in patent US20190112362A1 (published 2019).

Biological target: Monomeric cynomolgus monkey Tau (cynomolgus monkey, UniProt P57786 2-459 (rhesus entry))
Test: SPR, hIgG captured, cynomolgus Tau monomer analyte, 1:1 model

Chain of Monomeric cynomolgus monkey Tau (P57786 other isoform, or with tags, fused parts or gaps limits assumed, form in doubt): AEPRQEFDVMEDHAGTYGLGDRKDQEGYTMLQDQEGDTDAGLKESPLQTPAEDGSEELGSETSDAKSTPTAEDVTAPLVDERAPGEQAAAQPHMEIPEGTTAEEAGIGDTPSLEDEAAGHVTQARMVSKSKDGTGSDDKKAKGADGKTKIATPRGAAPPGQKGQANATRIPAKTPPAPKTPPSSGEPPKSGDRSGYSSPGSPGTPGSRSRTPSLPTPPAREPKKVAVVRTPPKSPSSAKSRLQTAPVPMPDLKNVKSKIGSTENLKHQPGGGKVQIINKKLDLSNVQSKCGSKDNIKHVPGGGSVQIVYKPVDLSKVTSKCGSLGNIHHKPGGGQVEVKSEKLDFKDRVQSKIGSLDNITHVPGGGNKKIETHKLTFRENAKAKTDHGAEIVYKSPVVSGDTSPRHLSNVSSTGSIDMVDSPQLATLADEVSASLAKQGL

Binder	Kd [nM]	koff [s⁻¹]	kon [M⁻¹ s⁻¹]
hu37D3.v28.A4 (antibody, V domains shown, also called hu37D3-H9.v28.A4) VH: EVQLVESGGGLVQPGGSLRLSCAASGLIFRSYGMSWVRQAPGKGLEWVATINSGGTYTYYPDSVKGRFTISRDNSKNTLYLQMNSLRAEDTAVYYCANSYSGAMDYWGQGTLVTVSS VL: DDVLTQTPLSLPVTPGQPASISCRSSQSIVHSNGNTYLEWYLQKPGQSPQLLIYKVSNRFSGVPDRFSGSGSGTDFTLKISRVEAEDVGVYYCFQGSLVPWTFGQGTKVEIK	0.7	0.001	1.7e+06
hu37D3-H9.v1 (antibody, V domains shown, Kappa1 framework) VH: EVQLVESGGGLVQPGGSLRLSCAASGLIFRSYGMSWVRQAPGKGLEWVATINSGGTYTYYPDSVKGRFTISRDNSKNTLYLQMNSLRAEDTAVYYCANSYSGAMDYWGQGTLVTVSS VL: EDQLTQSPSSLSASVGDRVTITCRSSQSIVHSNGNTYFEWYQQKPGKSPKLLIYKVSNRFSGVPSRFSGSGSGTDFTLTISSLQPEDFATYYCFQGSLVPWTFGQGTKVEIK	0.8	–	2e+06
hu37D3-H9.v5 (antibody, V domains shown, Kappa2 framework) VH: EVQLVESGGGLVQPGGSLRLSCAASGLIFRSYGMSWVRQAPGKGLEWVATINSGGTYTYYPDSVKGRFTISRDNSKNTLYLQMNSLRAEDTAVYYCANSYSGAMDYWGQGTLVTVSS VL: EDVLTQTPLSLPVTPGQPASISCRSSQSIVHSNGNTYFEWYLQKPGQSPQLLIYKVSNRFSGVPDRFSGSGSGTDFTLKISRVEAEDVGVYYCFQGSLVPWTFGQGTKVEIK	0.6	0.001	1.5e+06
